From US10881612B2, “Cationic liposomes for cancer immunotherapy” (The Methodist Hospital, priority 2015, dated 2021)

B1: IL-12: Recombinant mouse IL-12 purchased from R&D Systems (protein, UniProt P43431 23-215; P43432 23-335, looked up)
Interleukin-12 subunit alpha: RVIPVSGPARCLSQSRNLLKTTDDMVKTAREKLKHYSCTAEDIDHEDITRDQTSTLKTCLPLELHKNESCLATRETSSTTRGSCLPPQKTSLMMTLCLGSIYEDLKMYQTEFQAINAALQNHNHQQIILDKGMLVAIDELMQSLNHNGETLRQKPPVGEADPYRVKMKLCILLHAFSTRVVTINRVMGYLSSA
Interleukin-12 subunit beta: MWELEKDVYVVEVDWTPDAPGETVNLTCDTPEEDDITWTSDQRHGVIGSGKTLTITVKEFLDAGQYTCHKGGETLSHSHLLLHKKENGIWSTEILKNFKNKTFLKCEAPNYSGRFTCSWLVQRNMDLKFNIKSSSSSPDSRAVTCGMASLSAEKVTLDQRDYEKYSVSCQEDVTCPTAEETLPIELALEARQQNKYENYSTSFFIRDIIKPDPPKNLQMKPLKNSQVEVSWEYPDSWSTPHSYFSLKFFVRIQRKKEKMKETEEGCNQKGAFLVEKTSTEVQCKGGNVCVQAQDRYYNSSCSKWACVPCRVRS

Legend:
4T1 breast cancer cells = experiment: Cytotoxicity of cationic liposomes by propidium iodide flow cytometry; assay type: cell-based, mouse; conditions: 4T1 cells, 4 μg/mL liposomes or free MPL (250 ng), 24 hours, n=3
Experimental: (§1) The cytotoxicity of cationic liposomes to 4T1 breast cancer cells was evaluated by flow cytometry using propodium iodide (PI). Using a 24 well plate format, cells were treated with 4 μg control or MPL liposomes, or free MPL (250 ng) for 24 hours. Cells were released using trypsin and treated with PI according to manufacturer's protocol (Invitrogen). Samples were analyzed using a LSR II™ Flow Cytometer (BD Biosciences, Mountain View, Calif., USA) equipped with […] ™ software (2007). In vivo tumor cytotoxicity of cationic liposomes was evaluated in BALB/c mice bearing 200 mm^3 4T1 tumors 24 hours following intratumoral injection of liposomes (50 μL; 1 mg lipid). […]
(§2) The cytotoxicity of cationic liposomes to 4T1 breast cancer cells was evaluated by flow cytometry using propidium iodide (PI). […] Samples were analyzed using a LSR II® Flow Cytometer (BD Biosciences. Mountain View, Calif., USA) equipped with […] ™ software (2007). In vivo tumor cytotoxicity of cationic liposomes was evaluated in BALB/c mice bearing 200 mm^3 4T1 tumors 24 hr following intratumoral injection of liposomes (50 μL; 1 mg lipid). Excised tumors were embedded in paraffin, sectioned, and stained with hematoxylin/eosin, or analyzed for apoptosis using the DeadEnd® Fluorometric TUNEL System (Promega Corp., Madison. Wis., USA).

4T1 tumors [1] = experiment: In vivo tumor cytotoxicity (H&E and TUNEL staining) after intratumoral injection; conditions: 24 hours after intratumoral injection
Experimental: as §1, §2

[2] = system: 4T1 orthotopic breast tumors; experiment: Therapeutic efficacy study, intratumoral injection; assay type: in vivo, BALB/c mice; conditions: intratumoral injection once a week for two weeks
Experimental: Breast cancer tumors were established in BALB/c mice by intramammary injection of 1×10^5 4T1-luciferase cells. When tumors reached a median size of 100-200 mm^3, mice were administered intratumoral injections as follows: PBS control, Free MPL (6.25 μg), control liposomes (50 μL; 1 mg lipid); MPL liposomes (50 μL), and IL-12 (5 μg) with/without MPL liposomes. Tumor growth was monitored by caliper measurements three times per week and by luciferase expression measured weekly using the Xenogen IVIS-200 System (Perkin Elmer Inc., Waltham, Mass., USA) following intra-peritoneal injection of 75 mg/kg RediJect D-Luciferin (Perkin Elmer Inc.), 24-26 days after initiation of tumor growth, mice were sacrificed, blood was collected by retro-orbital bleeding, and tumor and spleen were collected for immunohistochemical, weight, and size analysis. Dual tumors were grown in naïve mice using the same experimental conditions with intratumoral injection of particles limited to a single tumor.
Breast cancer tumors were established in BALB/c mice by intramammary injection of 1×10^5 4T1-luciferase cells. When tumors reached a median size of 100-200 mm^3, mice were administered intratumoral injections as follows: PBS control. Free MPL (6.25 μg), control liposomes (50 μL; 1 mg lipid): MPL liposomes (50 μL), and IL-12 (5 μg) with/without MPL liposomes. […]

4T1 tumors [3] = experiment: Immunofluorescence of tumor sections (cellular phenotype of tumor microenvironment); assay type: in vivo, BALB/c mice
Experimental: Tissues were quick frozen in OCT (Tissue-Tek) and stored at −80° C. Tissue sections (10 μm) were fixed with ice-cold acetone for 15 minutes at −20° C. and washed three times with IX PBS using trays followed by blocking with 5% fetal bovine serum in PBS. Fluorescence-labeled antibodies [e-flour 615 CD8 (clone 53-6.7; 1:50), e-flour 570 Ki-67 (clone solA15: 1:100; eBioscience, San Diego, Calif., USA); FITC F4/80 (MCA497A488; 1:100), Alexa Fluor 647 CD204 (MCA1322; 1:100, AbD Serotec, Raleigh N.C., USA); and 33D1 (1:100, BD Biosciences, San Jose. Calif.: 1:500 secondary anti-rat IgG Alexa Fluor® 546; Invitrogen) and iNOS (6/iNOS/NOS; 1:100 BD Biosciences, San Jose, Calif., USA; 1:500 anti-rabbit IgG-TRITC, Jackson Immunoresearch Labs, Inc. West Grove, Pa., USA)] were incubated with tissues overnight at 4° C. in the presence of 5% FBS. Slides were then washed three times with PBS and mounted with ProLong® Gold AntiFade with DAPI (Invitrogen). Images were taken using an A1 Nikon confocal microscope and the percent positive cells were determined by manual counting of four arbitrary regions in random samples.
Tissues were quick frozen in OCT (Tissue-Tek) and stored at −80° C. Tissue sections (10 μm) were fixed with ice-cold acetone for 15 min at −20° C. and washed three times with 1×PBS using trays followed by blocking with 5% fetal bovine serum in PBS. Fluorescently-labeled antibodies [eFluor® 615 CD8 (clone 53-6.7; 1:50), eFluor® 570 Ki-67 (clone solA15; 1:100; eBioscience, San Diego, Calif. USA); FITC F4/80 (MCA497A488; 1:100), Alexa-Fluor® 647 CD204 (MCA1322; 1:100, AbD Serotec, Raleigh N.C. USA); and 33D1 (1:100, BD Biosciences, San Jose, Calif.; 1:500 secondary anti-rat IgG Alexa-Fluor® 546: Invitrogen) and iNOS (6/iNOS/NOS; 1:100 BD Biosciences. San Jose. Calif., USA; 1:500 anti-rabbit IgG-TRITC. Jackson ImmunoResearch Laboratories. Inc., West Grove, Pa. USA)] were incubated with tissues overnight at 4° C. in the presence of 5% FBS. Slides were then washed three times with PBS and mounted with ProLong® Gold AntiFade® with DAPI (Invitrogen). Images were obtained using a confocal microscope (A1 Nikon), and the percent-positive cells were determined by manual counting of four arbitrary regions in random samples.

serum cytokines = experiment: Multiplex bead ELISA of serum cytokines; assay type: in vivo, BALB/c mice; conditions: 5 hours after intratumoral injection
Experimental: Serum cytokines were analyzed 5 hours after intratumoral injection of liposomes using a mouse cytokine magnetic 10-plex panel kit (Invitrogen, Carlsbad, Calif., USA) for the Luminex® platform. Following retro-orbital eye bleed, plasma was collected by centrifugation at 1500 g for 10 minutes at 4° C. and stored at −80° C. Plates were prepared using 25 μL/well of the antibody-bound head. After 2 washes, 50 μL serum and 50 μL assay diluent (or 100 μL standard) were added and plates were incubated at room temperature for 2 hours on an orbital shaker. After two washes, 100 μL of biotinylated detector antibody was added to the heads and they were incubated for an additional hour, followed by two more washes and the addition of 100 μL streptavidin-RPE for 30 minutes. After a final two washes, beads were suspended in 125 μL wash solution and inserted into the XY platform of a Luminex MAGPIX Instrument (EMD Millipore, Billerica, Mass. USA). The assay protocol was designed using xPONENT software and samples were run at 100 events/bead region.
Multiplex Bead ELISA. Serum cytokines were analyzed 5 hr after intratumoral injection of liposomes using a mouse cytokine magnetic 10-plex panel kit (Invitrogen, Carlsbad, Calif. USA) for the Luminex® platform. Following retro-orbital eye bleed, plasma was collected by centrifugation at 1500×g for 10 min at 4° C. and stored at −80° C. […]

4T1 tumor [4] = experiment: V-sense 19F MRI / confocal tracking of macrophage infiltration into tumor; assay type: in vivo, mice; conditions: after IL-12 intratumoral injection, tumors extracted 24 hours post imaging
Source text: Macrophage accumulation has been documented to contribute to cancer progression through suppression of the immune response and promotion of tumor vascularization (Mielgo et al., 2013). V-sense is a perfluorocarbon emulsion that is taken up by monocytes and macrophages, allowing for in-vivo detection through ^19F MRI. Ahrens, et al. (2011) successfully quantified V-sense in inflamed tissues of the central nervous system in an ex-vivo model of allergic encephalomyelitis, which they correlated with immunohistochemistry to confirm co-localization of V-sense emulsion droplets and macrophages. Hitchens et al. (2011) detected perfluorocarbon-labeled macrophages in a model of cardiac allograft rejection, which was confirmed via immunohistochemistry and histology. V-sense was used to study the impact of IL-12 on macrophage infiltration into the tumor (FIG. 8). […] Confocal images in FIG. 8B show V-sense (red) uptake by Celltracker™ Green RAW cells.

4T1 tumor [5] = experiment: Immune phenotyping of tumor immunocytes by flow; assay type: in vivo, murine; conditions: 24 hours after treatment, preliminary

| Molecule | cell death (propidium iodide uptake) (4T1 breast cancer cells) | cell death in tumor (TUNEL staining) (4T1 tumors [1]) | tumor growth (caliper measurements) [2] | CD8+ (cytolytic) T cells in the tumor (change) (4T1 tumors [3]; mouse, in vivo) | F4/80+ macrophages in the tumor (change) (4T1 tumors [3]; mouse, in vivo) | iNOS in tumors (change) (4T1 tumors [3]; mouse, in vivo) | increase in iNOS (nitric oxide synthase) expression in the tumor above basal levels (4T1 tumors [3]; mouse, in vivo) | 33D1+ dendritic cells in the tumor (change) (4T1 tumors [3]; tumor sections, immunofluorescence) | serum IFN-γ (serum cytokines) | V-sense signal distribution in tumor (macrophage infiltration) (4T1 tumor [4]) | CD4+ T cells in the tumor (4T1 tumor [5]) | CD8+ T cells in the tumor (4T1 tumor [5]) | MDSC in the tumor (4T1 tumor [5]) |
| --- | --- | --- | --- | --- | --- | --- | --- | --- | --- | --- | --- | --- | --- |
| monophosphoryl lipid A [free MPL] | 16% | Minimal cell death | did not slow tumor growth |  |  |  |  |  |  |  |  |  |  |
| B1 |  |  |  | increased | increased | enhancing production | 3 fold | increased | increase | strong penetration of V-sense signal into tumor tissue | increases | increases | decreases |
